Residue numbers refer to the chain shown, from its start. Names and notes keep the numbering of the source.
T1: Ep-CAM (UniProt P16422 24-265, limits assumed)
T1 construct: Antigen of the Biacore analysis of ING-1 variants
T1 sequence (looked up): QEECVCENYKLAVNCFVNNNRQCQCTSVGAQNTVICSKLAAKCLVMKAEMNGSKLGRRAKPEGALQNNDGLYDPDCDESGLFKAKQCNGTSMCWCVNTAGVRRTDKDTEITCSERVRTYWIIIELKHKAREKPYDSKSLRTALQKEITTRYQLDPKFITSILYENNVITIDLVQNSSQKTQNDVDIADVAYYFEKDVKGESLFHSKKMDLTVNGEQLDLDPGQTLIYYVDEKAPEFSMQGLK

T2: Ep-CAM (UniProt P16422 24-265, limits assumed)
T2 construct: Amine coupled to a CM5 chip in the Biacore assays
T2 sequence (looked up): T1 sequence (looked up)

B1: ING-1 heavy chain Y105D (Fab, V domains shown)
VH: QIQLVQSGPELKKPGETVKISCKASGYTFTKYGMNWVKQAPGKGLKWMGWINTYTEEPTYGDDFKGRFAFSLETSASTANLQINNLKSEDTATYFCARFGSAVDDWGQGTSVTVSS
VL: DIVMTQAAFSNPVTLGTSGSISCRSSKSLLHSNGITYLYWYLQKPGQSPQLLIYQMSNLASGVPDRFSSSGSGTDFTLRISRVEAEDVGVYYCAQNLELPRTFGGGTKLEMKR
B2: ING-1 heavy chain Y32S (Fab, V domains shown)
VH: B1 VH with Y32S, D105Y
VL: B1 VL
B3: ING-1 heavy chain W50H (Fab, V domains shown)
VH: B1 VH with W50H, D105Y
VL: B1 VL
B4: ING-1 heavy chain Y32K (Fab, V domains shown)
VH: B1 VH with Y32K, D105Y
VL: B1 VL
B5: ING-1 heavy chain Y105K (Fab, V domains shown)
VH: B1 VH with D105K
VL: B1 VL
B6: ING-1 heavy chain Y54H (Fab, V domains shown)
VH: B1 VH with Y54H, D105Y
VL: B1 VL
B7: ING-1 heavy chain T55E (Fab, V domains shown)
VH: B1 VH with T55E, D105Y
VL: B1 VL
B8: ING-1 heavy chain T55Q (Fab, V domains shown)
VH: B1 VH with T55Q, D105Y
VL: B1 VL
B9: ING-1 heavy chain W50F (Fab, V domains shown)
VH: B1 VH with W50F, D105Y
VL: B1 VL
B10: ING-1 heavy chain Y54E (Fab, V domains shown)
VH: B1 VH with Y54E, D105Y
VL: B1 VL
B11: ING-1 heavy chain Y32Q (Fab, V domains shown)
VH: B1 VH with Y32Q, D105Y
VL: B1 VL
B12: ING-1 heavy chain Y32E (Fab, V domains shown)
VH: B1 VH with Y32E, D105Y
VL: B1 VL
B13: ING-1 heavy chain T59Q (Fab, V domains shown)
VH: B1 VH with T59Q, D105Y
VL: B1 VL
B14: ING-1 heavy chain T55H (Fab, V domains shown)
VH: B1 VH with T55H, D105Y
VL: B1 VL
B15: ING-1 heavy chain W50S (Fab, V domains shown)
VH: B1 VH with W50S, D105Y
VL: B1 VL
B16: ING-1 heavy chain Y105E (Fab, V domains shown)
VH: B1 VH with D105E
VL: B1 VL
B17: ING-1 heavy chain T55D (Fab, V domains shown)
VH: B1 VH with T55D, D105Y
VL: B1 VL
B18: ING-1 heavy chain T55W (Fab, V domains shown)
VH: B1 VH with T55W, D105Y
VL: B1 VL
B19: ING-1 heavy chain W50N (Fab, V domains shown)
VH: B1 VH with W50N, D105Y
VL: B1 VL
B20: ING-1 heavy chain Y54D (Fab, V domains shown)
VH: B1 VH with Y54D, D105Y
VL: B1 VL
B21: ING-1 heavy chain W50K (Fab, V domains shown)
VH: B1 VH with W50K, D105Y
VL: B1 VL
B22: ING-1 heavy chain T55F (Fab, V domains shown)
VH: B1 VH with T55F, D105Y
VL: B1 VL
B23: ING-1 heavy chain Y32H (Fab, V domains shown)
VH: B1 VH with Y32H, D105Y
VL: B1 VL
B24: ING-1 heavy chain W50E (Fab, V domains shown)
VH: B1 VH with W50E, D105Y
VL: B1 VL
B25: ING-1 heavy chain Y105S (Fab, V domains shown)
VH: B1 VH with D105S
VL: B1 VL
B26: ING-1 heavy chain W50R (Fab, V domains shown)
VH: B1 VH with W50R, D105Y
VL: B1 VL
B27: ING-1 heavy chain W50Y (Fab, V domains shown)
VH: B1 VH with W50Y, D105Y
VL: B1 VL
B28: ING-1 heavy chain T59H (Fab, V domains shown)
VH: B1 VH with T59H, D105Y
VL: B1 VL
B29: ING-1 heavy chain W50Q (Fab, V domains shown)
VH: B1 VH with W50Q, D105Y
VL: B1 VL
B30: ING-1 heavy chain T55Y (Fab, V domains shown)
VH: B1 VH with T55Y, D105Y
VL: B1 VL
B31: ING-1 light chain E98N (Fab, V domains shown)
VH: B1 VH with D105Y
VL: B1 VL with E98N
notes: Fab, periplasmic extract
B32: ING-1 light chain K27N (Fab, V domains shown)
VH: B1 VH with D105Y
VL: B1 VL with K27N
notes: Fab, periplasmic extract
B33: ING-1 light chain K27W (Fab, V domains shown)
VH: B1 VH with D105Y
VL: B1 VL with K27W
notes: Fab, periplasmic extract
B34: ING-1 light chain H31N (Fab, V domains shown)
VH: B1 VH with D105Y
VL: B1 VL with H31N
notes: Fab, periplasmic extract
B35: ING-1 light chain I35N (Fab, V domains shown)
VH: B1 VH with D105Y
VL: B1 VL with I35N
notes: Fab, periplasmic extract
B36: ING-1 light chain E98S (Fab, V domains shown)
VH: B1 VH with D105Y
VL: B1 VL with E98S
notes: Fab, periplasmic extract
B37: ING-1 light chain H31K (Fab, V domains shown)
VH: B1 VH with D105Y
VL: B1 VL with H31K
notes: Fab, periplasmic extract
B38: ING-1 light chain L29E (Fab, V domains shown)
VH: B1 VH with D105Y
VL: B1 VL with L29E
notes: Fab, periplasmic extract
B39: ING-1 light chain L29D (Fab, V domains shown)
VH: B1 VH with D105Y
VL: B1 VL with L29D
notes: Fab, periplasmic extract
B40: ING-1 light chain K27S (Fab, V domains shown)
VH: B1 VH with D105Y
VL: B1 VL with K27S
notes: Fab, periplasmic extract
B41: ING-1 light chain L29F (Fab, V domains shown)
VH: B1 VH with D105Y
VL: B1 VL with L29F
notes: Fab, periplasmic extract
B42: ING-1 light chain K27E (Fab, V domains shown)
VH: B1 VH with D105Y
VL: B1 VL with K27E
notes: Fab, periplasmic extract
B43: ING-1 light chain H31R (Fab, V domains shown)
VH: B1 VH with D105Y
VL: B1 VL with H31R
notes: Fab, periplasmic extract

These binders were tested against T1, Ep-CAM (assay: Biacore, Fab periplasmic extract).

| binding result | fold difference in affinity vs original [fold] | Binder |
| --- | --- | --- |
| no binding |  | B1 |
|  | 0.01 | B2 |
|  | 0.02 | B3 |
|  | 0.08 | B4 |
| no binding |  | B5 |
|  | 1 | B6 |
| no binding |  | B7 |
|  | 0.03 | B8 |
|  | 0.09 | B9 |
|  | 0.07 | B10 |
|  | 0.1 | B11 |
|  | 0.08 | B12 |
| no binding |  | B13 |
|  | 0.05 | B14 |
|  | 0.02 | B15 |
| no binding |  | B16 |
|  | 0.03 | B17 |
|  | 0.1 | B18 |
|  | 0.03 | B19 |
|  | 0.05 | B20 |
|  | 0.04 | B21 |
|  | 0.03 | B22 |
|  | 0.6 | B23 |
| no binding |  | B24 |
|  | 0.09 | B25 |
|  | 0.1 | B26 |
|  | 0.04 | B27 |
|  | 0.4 | B28 |
|  | 0.01 | B29 |
|  | 0.03 | B30 |

What follows are binders tested against T2, Ep-CAM (assay: Biacore, Fab periplasmic extract).

| binding result | fold difference in affinity vs parental ING-1 [fold] | Binder |
| --- | --- | --- |
| no binding |  | B31 |
| no binding |  | B32 |
| no binding |  | B33 |
|  | 0.5 | B34 |
|  | 0.5 | B35 |
| no binding |  | B36 |
|  | 0.05 | B37 |
| no binding |  | B38 |
| no binding |  | B39 |
| no binding |  | B40 |
| no binding |  | B41 |
| no binding |  | B42 |
|  | 0.06 | B43 |
